# Reference: US20240132599A1 (GAMMADELTA THERAPEUTICS, published 2024)
# B1: ADT1-4-6/ADT3-2 (bispecific antibody, V domains shown)
# VH: EVQLQQSGPGLVKPSQTLSLTCAISGDSVSSKSAAWNWIRQSPSRGLEWLGRTYYRSKWSTDYAASVKSRITINPDTSKNQLSLQLNSVTPEDTAVYYCARTWAGYPDVWGQGTLVTVSS
# VL: DIQMTQSPPALSASVGDRVTITCRASQDINDWLAWYQHKPGKAPKLLIYDASSLESGVPLRFSGSGSGTEFTLTISSLQPDDFATYYCQQKYKTPQVTFGQGTRLEIK
# notes: mAb2, human IgG1; light constant region not tied; also called ADT1-4-6 × LEE
# B2: ADT1-4/ADT3-1 (bispecific antibody, human IgG1, V domains shown)
# VH: QVQLQQSGPGLVKPSQTLSLTCAISGDSVSSKSAAWNWIRQSPSRGLEWLGRTYYRSKWSTDYAASVKSRITINPDTSKNQLSLQLNSVTPEDTAVYYCARTWSGYVDVWGQGTLVTVSS
# VL: DIQMTQSPPALSASVGDRVTITCRASQDINDWLAWYQHKPGKAPKLLIYDASSLESGVPSRFSGSGSGTEFTLTISSLQPDDFATYYCQQSYSTPQVTFGQGTRLEIKR
# notes: mAb2; also called G04 × FS1-67; G04 FS1-67
# B3: ADT1-4-138/ADT3-2 (bispecific antibody, V domains shown)
# VH: EVQLQQSGPGLVKPSQTLSLTCAISGDSVSSKSAAWNWIRQSPSRGLEWLGRTYYRSKWSTDYAASVKSRITINPDTSKNQLSLQLNSVTPEDTAVYYCARTWADYVDVWGQGTLVTVSS
# VL: DIQMTQSPPALSASVGDRVTITCRASQDINDWLAWYQHKPGKAPKLLIYDASSLESGVPSRFSGSGSGTEFTLTISSLQPDDFATYYCQQRYSTDQVTFGQGTRLEIK
# notes: mAb2, human IgG1; light constant region not tied; also called ADT1-4-138 × LEE; ADT1-4-138xADT3-2
# B4: ADT1-4-2/ADT3-6 (bispecific antibody)
# heavy: EVQLQQSGPGLVKPSQTLSLTCAISGDSVSSKSAAWNWIRQSPSRGLEWLGRTYYRSKWSTDYAASVKSRITINPDTSKNQLSLQLNSVTPEDTAVYYCARTWVGYVDRWGQGTLVTVSSASTKGPSVFPLAPSSKSTSGGTAALGCLVKDYFPEPVTVSWNSGALTSGVHTFPAVLQSSGLYSLSSVVTVPSSSLGTQTYICNVNHKPSNTKVDKKVEPKSCDKTHTCPPCPAPELAGAPSVFLFPPKPKDTLMISRTPEVTCVVVDVSHEDPEVKFNWYVDGVEVHNAKTKPREEQYNSTYRVVSVLTVLHQDWLNGKEYKCKVSNKALPAPIEKTISKAKGQPREPQVYTLPPSRDELEEGPVSLTCLVKGFYPSDIAVEWESNGQPENNYKTTPPVLDSDGSFFLYSKLTVSYWRWYKGNVFSCSVMHEALHNHYTQKSLSLSPG
# light: DIQMTQSPPALSASVGDRVTITCRASQDINDWLAWYQHKPGKAPKLLIYDASSLESGVPLRFSGSGSGTEFTLTISSLQPDDFATYYCQQKYSAPQVTFGQGTRLEIKRTVAAPSVFIFPPSDEQLKSGTASVVCLLNNFYPREAKVQWKVDNALQSGNSQESVTEQDSKDSTYSLSSTLTLSKADYEKHKVYACEVTHQGLSSPVTKSFNRGEC
# notes: mAb2; also called ADT1-4-2xLEE2
# B5: ADT1-4-2/ADT3-3 (bispecific antibody, human IgG1, kappa)
# heavy: EVQLQQSGPGLVKPSQTLSLTCAISGDSVSSKSAAWNWIRQSPSRGLEWLGRTYYRSKWSTDYAASVKSRITINPDTSKNQLSLQLNSVTPEDTAVYYCARTWVGYVDRWGQGTLVTVSSASTKGPSVFPLAPSSKSTSGGTAALGCLVKDYFPEPVTVSWNSGALTSGVHTFPAVLQSSGLYSLSSVVTVPSSSLGTQTYICNVNHKPSNTKVDKKVEPKSCDKTHTCPPCPAPELAGAPSVFLFPPKPKDTLMISRTPEVTCVVVDVSHEDPEVKFNWYVDGVEVHNAKTKPREEQYNSTYRVVSVLTVLHQDWLNGKEYKCKVSNKALPAPIEKTISKAKGQPREPQVYTLPPSRDELDEGGPVSLTCLVKGFYPSDIAVEWESTYGPENNYKTTPPVLDSDGSFFLYSKLTVSYWRWVKGNVFSCSVMHEALHNHYTQKSLSLSPG
# light: DIQMTQSPPALSASVGDRVTITCRASQDINDWLAWYQHKPGKAPKLLIYDASSLESGVPLRFSGSGSGTEFTLTISSLQPDDFATYYCQQKYSAPQVTFGQGTRLEIKRTVAAPSVFIFPPSDEQLKSGTASVVCLLNNFYPREAKVQWKVDNALQSGNSQESVTEQDSKDSTYSLSSTLTLSKADYEKHKVYACEVTHQGLSSPVTKSFNRGEC
# notes: also called ADT1-4-2xFS1-65
# B6: ADT1-4-2/ADT3-1 (bispecific antibody)
# heavy: EVQLQQSGPGLVKPSQTLSLTCAISGDSVSSKSAAWNWIRQSPSRGLEWLGRTYYRSKWSTDYAASVKSRITINPDTSKNQLSLQLNSVTPEDTAVYYCARTWVGYVDRWGQGTLVTVSSASTKGPSVFPLAPSSKSTSGGTAALGCLVKDYFPEPVTVSWNSGALTSGVHTFPAVLQSSGLYSLSSVVTVPSSSLGTQTYICNVNHKPSNTKVDKKVEPKSCDKTHTCPPCPAPELAGAPSVFLFPPKPKDTLMISRTPEVTCVVVDVSHEDPEVKFNWYVDGVEVHNAKTKPREEQYNSTYRVVSVLTVLHQDWLNGKEYKCKVSNKALPAPIEKTISKAKGQPREPQVYTLPPSRDETDDGPVSLTCLVKGFYPSDIAVEWESTYGPENNYKTTPPVLDSDGSFFLYSKLTVSYWRWYKGNVFSCSVMHEALHNHYTQKSLSLSPG
# light: DIQMTQSPPALSASVGDRVTITCRASQDINDWLAWYQHKPGKAPKLLIYDASSLESGVPLRFSGSGSGTEFTLTISSLQPDDFATYYCQQKYSAPQVTFGQGTRLEIKRTVAAPSVFIFPPSDEQLKSGTASVVCLLNNFYPREAKVQWKVDNALQSGNSQESVTEQDSKDSTYSLSSTLTLSKADYEKHKVYACEVTHQGLSSPVTKSFNRGEC
# notes: mAb2; also called ADT1-4-2xFS1-67
# B7: ADT1-4-2/ADT3-4 (bispecific antibody)
# heavy: EVQLQQSGPGLVKPSQTLSLTCAISGDSVSSKSAAWNWIRQSPSRGLEWLGRTYYRSKWSTDYAASVKSRITINPDTSKNQLSLQLNSVTPEDTAVYYCARTWVGYVDRWGQGTLVTVSSASTKGPSVFPLAPSSKSTSGGTAALGCLVKDYFPEPVTVSWNSGALTSGVHTFPAVLQSSGLYSLSSVVTVPSSSLGTQTYICNVNHKPSNTKVDKKVEPKSCDKTHTCPPCPAPELAGAPSVFLFPPKPKDTLMISRTPEVTCVVVDVSHEDPEVKFNWYVDGVEVHNAKTKPREEQYNSTYRVVSVLTVLHQDWLNGKEYKCKVSNKALPAPIEKTISKAKGQPREPQVYTLPPSRDETESGPVSLTCLVKGFYPSDIVVEWESKFGPENNYKTTPPVLDSDGSFFLYSKLTVSNLRWTKGHVFSCSVMHEALHNHYTQKSLSLSPG
# light: DIQMTQSPPALSASVGDRVTITCRASQDINDWLAWYQHKPGKAPKLLIYDASSLESGVPLRFSGSGSGTEFTLTISSLQPDDFATYYCQQKYSAPQVTFGQGTRLEIKRTVAAPSVFIFPPSDEQLKSGTASVVCLLNNFYPREAKVQWKVDNALQSGNSQESVTEQDSKDSTYSLSSTLTLSKADYEKHKVYACEVTHQGLSSPVTKSFNRGEC
# notes: mAb2; also called ADT1-4-2x747
# B8: ADT1-7 (parental) (antibody, IgG1, V domains shown)
# VH: QVQLVESGGGLVKPGGSLRLSCAASGFTFSDYYMSWIRQAPGKGLEWVSYISSSGSTIYYADSVKGRFTISRDNAKNSLYLQMNSLRAEDTAVYYCARVDYADAFDIWGQGTLVTVSS
# VL: DIQMTQSPSSLSASVGDRVTIACRAGQSIGTYLNWYQQKPGKAPKLLIYVASSLQSGVPSRFSGSGSGTEFTLTISSLQPEDFATYYCQQSYSTLLTFGRGTKVEIK
# notes: IgG1; also called E07; 1245_P01_E07
# B9: ADT1-7-61 (antibody, IgG1, V domains shown)
# VH: EVQLVESGGGLVKPGGSLRLSCAASGFTFSDYYMSWIRQAPGKGLEWVSYISSSGSTIYYADSVKGRFTISRDNAKNSLYLQMNSLRAEDTAVYYCARDDYDDAFDIWGQGTLVTVSS
# VL: DIQMTQSPSSLSASVGDRVTIACRAGQSIGTYLNWYQQKPGKAPKLLIYVASSLQSGVPSRFSGSGSGTEFTLTISSLQPEDFATYYCQQSASELLTFGRGTKVEIK
# notes: IgG1
# B10: ADT1-7-3 (antibody, IgG1, V domains shown)
# VH: EVQLVESGGGLVKPGGSLRLSCAASGFTFSDYYMSWIRQAPGKGLEWVSYISSSGSTIYYADSVKGRFTISRDNAKNSLYLQMNSLRAEDTAVYYCARVSYAEAFDIWGQGTLVTVSS
# VL: DIQMTQSPSSLSASVGDRVTIACRAGQSIGTYLNWYQQKPGKAPKLLIYVASSLQSGVPSRFSGSGSGTEFTLTISSLQPEDFATYYCQQSYSGLDTFGRGTKVEIK
# notes: IgG1
# B11: ADT1-7-20 (antibody, IgG1, V domains shown)
# VH: EVQLVESGGGLVKPGGSLRLSCAASGFTFSDYYMSWIRQAPGKGLEWVSYISSSGSTIYYADSVKGRFTISRDNAKNSLYLQMNSLRAEDTAVYYCARVDYQEAFDIWGQGTLVTVSS
# VL: DIQMTQSPSSLSASVGDRVTIACRAGQSIGTYLNWYQQKPGKAPKLLIYVASSLQSGVPSRFSGSGSGTEFTLTISSLQPEDFATYYCQQSYSGLDTFGRGTKVEIK
# notes: IgG1
# Key:
# [1] = target: T1, L1 (DV1-GV4), recombinant soluble human Vδ1/Vγ4 γδ TCR heterodimer (human); test: SPR (Reichert 4SPR): antibody on a Protein A chip, human Vδ1 antigen flowed; column 'Affinity to Vδ1 (nM)'
# T1 construct: Biotinylated in the DELFIA ranking assay; also called human TRDV1; human Vδ1 antigen
# Protocol: Human Vδ1 antigen was flown over the cell at a 1:3 dilution series with top concentrations of 50 nM with the following parameters: 180s association, 900s dissociation, flow rate 25 μL/min, running buffer PBS+0.05% Tween-20. The chip surface was regenerated using 20 mM phosphoric acid following each injection. All experiments were performed at room temperature. Steady state fitting was determined according to Langmuir 1:1 binding using TraceDrawer software (Reichert Technologies.
# [2] = target: T2, human EGFR, recombinant protein (human, UniProt P00533 25-645); test: SPR
# T2 construct: Bought protein; also called human EGFR antigen
# [3] = target: T3, Vδ1 TCR on human Vδ1-positive γδ T cells (human, UniProt A0A1B0GX56 22-115); test: flow cytometry on skin-derived Vδ1+ cells, 20 min at 4 C, anti-human Fc secondary
# T3 construct: also called Vδ1 γδ T-cells; cell surface Vδ1 TCR
# Protocol: Cells were washed and stained with an anti-human Fc secondary antibody (Jackson Immunoresearch) and a viability dye for dead cells (eFlour 780, Invitrogen) for 20 minutes at 4° C. The cells were washed in FACS buffer and resuspended in Cell Fix (BD sciences) before analysis on a MACSQuant Analyser 10 flow cytometer (Miltenyi).
# [4] = target: T1, L1 (DV1-GV4), recombinant soluble human …; test: SPR
# [5] = target: T3, Vδ1 TCR on human Vδ1-positive γδ T cells; test: flow cytometry binding to γδ T cells, Donor 2 (TS164); column head printed IC50 (nM), the text calls it EC50 of binding; same value in the table of FIG. 11C
# Protocol: (§1) (FIGS. 11A-11B) The level of binding by the V61 mAbs to two γδ T cell donors, ATS006 (FIG. 11A) and TS164 (FIG. 11B). γδ T cells were stained with varying concentrations of Vδ1 mAbs, followed by a fluorescent anti-human IgG detection antibody (xxx). All incubation steps were performed at 4° C. and mAb binding was determined using flow cytometry to measure the median level of fluorescence. Logarithmic four parameter dose-response curves were fitted using GraphPad Prism 9.
# (§2) A range of target cells were assayed to determine the specificity and affinity of Vδ1 mAb binding. This included expanded skin-derived Vδ1 γδ T-cells, HEK293T cells, Raji cells, and multiple leukocyte subsets within human primary blood mononuclear cells. Adherent or semi-adherent cells (skin-derived Vδ1 γδ T-cells, HEK293T) were detached from tissue culture flask and resuspended in PBS. Similarly, non-adherent cell types (Raji, PBMC), were harvested and resuspended in PBS. Cells were seeded at a final density of 100,000 cells per well in v-bottom 96-well plates. Cells underwent centrifugation and the cell pellets were resuspended in FcR blocking reagent according to the manufacturer's instructions, and incubated for 20 minutes at 4C prior to a further wash. […] To determine the quantity of mAb bound to the cell surface, the cells were then stained with a murine anti-human IgG secondary antibody, conjugated to APC (product code . . . , dilution: 1:100). For Vδ1 γδ T-cells, HEK293T and Raji, the cells were also stained solely with a viability dye.
# [6] = target: T3, Vδ1 TCR on human Vδ1-positive γδ T cells; test: flow cytometry binding to γδ T cells, Donor 1 (ATS006); column head printed IC50 (nM), the text calls it EC50 of binding; same value in the table of FIG. 11C
# Protocol: as §1, §2
# [7] = target: T1, L1 (DV1-GV4), recombinant soluble human …; test: SPR (Reichert 4SPR), antibody on Protein A chip, human Vδ1 antigen as analyte, 1:1 fit, mean of two replicates (Avg KD)
# Description: The binding affinity of the antibodies to target (i.e. the Vδ1 chain of a γ TCR) is established by SPR analysis using a Reichert 4SPR instrument (Reichert Technologies).
# The binding interaction of Vδ1 and the affinity-matured mAbs were modelled according to Langmuir 1:1 binding.
# T3 sequence (A0A1B0GX56 22-115 limits assumed, stated change not applied): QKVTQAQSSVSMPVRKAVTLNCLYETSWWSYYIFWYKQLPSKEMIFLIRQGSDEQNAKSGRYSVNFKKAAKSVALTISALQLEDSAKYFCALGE
# T1 sequence (main, as listed by the source): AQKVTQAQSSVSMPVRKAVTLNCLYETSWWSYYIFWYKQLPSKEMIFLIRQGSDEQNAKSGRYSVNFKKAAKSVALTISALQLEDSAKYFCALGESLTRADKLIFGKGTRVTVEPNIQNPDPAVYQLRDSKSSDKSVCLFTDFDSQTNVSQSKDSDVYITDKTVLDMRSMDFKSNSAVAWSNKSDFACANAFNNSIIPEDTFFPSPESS
Binder,Kd [2] [nM],Kd [4] [nM],EC50 [5] [nM],EC50 [6] [nM],Kd [7] [nM],other results
B1,0.655,,,,,Kd [1]: 1.26 nM; EC50 [3]: 0.279 nM; EC95 [3]: 2.77 nM
B2,1.14,152,,,,
B3,2.78,,,,,Kd [1]: 18.3 nM; EC50 [3]: 0.209 nM; EC95 [3]: 2.25 nM
B4,19.2,0.818,,,,
B5,1.35,0.464,,,,
B6,1.37,0.378,,,,
B7,2.35,0.511,,,,
B8,,,226,> 100,38.1,
B9,,,196,93,1.04,
B10,,,0.952,5.15,3.78,
B11,,,2.68,37.2,4.99,
